{"source": "patent KR20220054080A", "about": "(dated 2022)", "binders": {"B1": {"name": "SA3830 (antibody, V domains shown)", "VH": "QVQLVESGGGLIQPGRSLSLSCAASGFNFDEYSMHWVRQRPGKGLEWVSGIKYNSNTILYADSVKGRFTVSRDNSKNSLYLQMNSLRAEDTAVYYCARDAMRGGDFDHWGQGTLITVSS", "VL": "DIQMTQSPSYLSASAGDRVTITCRASQSISDWLAWYQHKPGKAPKLLIYKASRLENGVPSRFRGSGSATDFTLTISSLQAEDVAVYYCQQYYSTTWTFGQGTKVDIK"}, "B2": {"name": "SA3902 (antibody, V domains shown)", "VH": "QVQLVQSGAEVRQPGASVKVSCKTSGYAFSYYHIHWVRQAPGQGLEWMGLINPGSGGTNYAQKFQGRVTLTRDTSTSTVYMDLTGLRSEDTAVYYCAGSEQPHYYANGAYRVWGQGTLVTVSS", "VL": "DIQMTQSPSTLSASVGDRVTITCRASQSISSYLNWYQQKPGKAPKLLIYEVSTLESGVPSRFSGSRSGTEFTLTISSLQPDDFATYYCQQYDTFGGGTKVEIK"}, "B3": {"name": "SA3856 (antibody, V domains shown)", "VH": "QMQLVESGGGLIQPGGSLRLSCAASGFTVTSAYMSWVRQAPGKGLEWVSIIYGGGSTYYADSVKGRFTISRDNSKNTLYLQMNSLRAEDTAVYYCTGPYPGRYDYWGRGTLVTVSS", "VL": "DIQMTQSPSSLSASVGDRVIITCRASQDIRTSLAWFQQRLGEAPRSLIYDASSLQNGVPSKFRGSGSGTDFTLTISSLQPEDFATYYCQQYKTVPLTFGGGTKVEIK"}, "B4": {"name": "SA4055 (antibody, V domains shown)", "VH": "EVQLVQSGGGLVQPGGSLRLSCAASVITVSSNYMSWVRQAPGKGLEWVSVIYPGGSTYYADSVKGRFTISRDKSKNTLYLQMNSLRAEDTAVYYCARDLDIVGGMDVWGQGTTVTVSS", "VL": "QSALTQPASVSGSPGQSITISCTGTSSDVGDYNLVSWYQQHPGKAPKVMIYDVSHRPSGVSNRFSGSKSGNTASLTISGLQAEDEADYYCSSYTSSTTVVFGGGTKLTVL"}, "B5": {"name": "SA4056 (antibody, V domains shown)", "VH": "B4 VH with E1Q, V5Q, Q6E", "VL": "DIQMTQSPSTLSASVGDRVTITCRASQSISRWLAWYQQKPGQAPKLLIYAASTLQSGVPSRFSGSGSGTEFTLTISSLQPDDFATYYCQQYDSYPRTFGQGTKVDIK"}, "B6": {"name": "SA4057 (antibody, V domains shown)", "VH": "B4 VH", "VL": "QLVLTQPPSVSGAPGQRVTISCTGSSSNIGAPHDVHWYQQLPGTAPRLLIYANNNRPSGVPDRFSGSKSGTSASLAITGLQDEDEADYYCQSYDSSLRAYVFGTGTKVTVL"}, "B7": {"name": "SA4043 (antibody, V domains shown)", "VH": "B4 VH with E1Q, V5Q, Q6E", "VL": "B5 VL"}, "B8": {"name": "SA4050 (antibody, V domains shown)", "VH": "QVQLVESGAEVKKPGASVKVSCKASGYTFTGYFIHWVRQAPGQGLEWMGWINPNSGGTNYAQKFQGRVTMTRDTSISTAYMELSRLRSDDTAVYYCARVPHLSGYYYEGVLGYFDYWGQGTLVTVSS", "VL": "QSALTQPASVSGSPGQSITISCTGTSIDIGSYNFVSWYQRHPGKAPRLLIYDVSDRPSGVSNRFSGSKSANTASLTISGLQAEDEADYYCSSYTSSSLWVFGGGTKLTVL"}, "B9": {"name": "SA4040 (antibody, V domains shown)", "VH": "EVQLVQSGAEVKKPGASVKVSCKASGYTFTGYYMHWARQAPGQGLEWMGWINPNSGGTNYAQKFQGRVTMTRDTSITTAYMELSRLTSDDTAVYYCARDQAFSMVRGVTDYWGQGTLVTVSS", "VL": "QSALTQPPSASGSPGQSVIISCTGSSSDVGGYNYVAWYQQYPGAAPKLIISEVTKRPSGVPDRFSGSKSGNTASLTISGLQAEDEANYYCSSYAGDNTWIFGGGTKLTVL"}, "B10": {"name": "SA4053 (antibody, V domains shown)", "VH": "EVQLVQSGGGLVQPGGSLRLSCADSGFTFSSYWMSWVRQVPGKGLEWVANIKQDGSEKYYVDSVKGRFTISRDNAKNSLYLQMNSLRAEDTAVYYCARDVGRGYCSSTSCYRFGGREDFFDYWGQGTLVTVSS", "VL": "QLVLTQPPSVSAAPGQRVTISCSGSFSNVGNNFVSWYRHLPGTAPELLIYDNNQRPSGIPDRFSASKSGTSATLAITGLHTGDEADYYCGTWDTSLSGVVFGGGTKLTVL"}, "B11": {"name": "SA4044 (antibody, V domains shown)", "VH": "EVQLVQSGGGLIQPGGSLRLSCAASGFTVSSNYMSWVRQAPGKGLEWVSVIYSGGSTYYADSVKGRFTISRDNSKNTLHLQMNSLRAEDTAVYYCARDLPQFDGFDYWGQGTLVTVSS", "VL": "QSALTQPPSLSVAPGRTARITCGGNNIGSKSVNWYQHMPGQAPVLVIYSDTDRPSGIPERVSGSKSGNTATLSISRVEAGDEADYYCQVWDSTTDHVVFGGGTKLTVL"}}, "note": "Substitutions are numbered along the chain they refer to. “And” between values parts separate entries of the source, which are not always exact repeats. Equal values may be shown once."}
{"molecular_target": "SARS-CoV-2 RBD-hFc (SARS-CoV-2, UniProt P0DTC2 319-541)", "assay": "cell-based or functional assay", "units": {"IC50, 세포내 유입(internalization) 억제, HEK293E/ACE2-GFP": "nM"}}
{"binder": "B1", "IC50, 세포내 유입(internalization) 억제, HEK293E/ACE2-GFP": 13.5}
{"binder": "B2", "IC50, 세포내 유입(internalization) 억제, HEK293E/ACE2-GFP": 14.9}
{"binder": "B3", "IC50, 세포내 유입(internalization) 억제, HEK293E/ACE2-GFP": 11.9}
{"binder": "B4", "IC50, 세포내 유입(internalization) 억제, HEK293E/ACE2-GFP": 37.1}
{"binder": "B5", "IC50, 세포내 유입(internalization) 억제, HEK293E/ACE2-GFP": 28.1}
{"binder": "B6", "IC50, 세포내 유입(internalization) 억제, HEK293E/ACE2-GFP": 28.1}
{"binder": "B7", "IC50, 세포내 유입(internalization) 억제, HEK293E/ACE2-GFP": 12.8}
{"binder": "B8", "IC50, 세포내 유입(internalization) 억제, HEK293E/ACE2-GFP": 36.9}
{"binder": "B9", "IC50, 세포내 유입(internalization) 억제, HEK293E/ACE2-GFP": 30.8}
{"binder": "B10", "IC50, 세포내 유입(internalization) 억제, HEK293E/ACE2-GFP": 62.7}
{"binder": "B11", "IC50, 세포내 유입(internalization) 억제, HEK293E/ACE2-GFP": 39.2}
{"molecular_target": "T1, SARS-CoV-2 RBD-mFc (SARS-CoV-2, UniProt P0DTC2 319-541)", "T1 construct": "range 319-541", "assay": "Octet QKe BLI, 1:1 global fit", "units": {"Kd": "nM", "koff": "s⁻¹", "kon": "M⁻¹ s⁻¹"}}
{"binder": "B1", "Kd": 0.782, "koff": 0.000702, "kon": 897000}
{"binder": "B2", "Kd": 0.328, "koff": "8.12e-05", "kon": 247000}
{"binder": "B3", "Kd": 0.0888, "koff": "4.3e-05", "kon": 484000}
{"binder": "B4", "Kd": 0.061, "koff": "2.36e-05", "kon": 387000}
{"binder": "B5", "Kd": 0.0907, "koff": "4.32e-05", "kon": 477000}
{"binder": "B6", "Kd": 0.0284, "koff": "4.96e-06", "kon": 175000}
{"binder": "B8", "Kd": 0.0929, "koff": "4.67e-05", "kon": 503000}
{"binder": "B9", "Kd": 0.384, "koff": 0.000181, "kon": 471000}
{"binder": "B10", "Kd": 0.689, "koff": 0.000218, "kon": 316000}
{"molecular_target": "T1, SARS-CoV-2 RBD-mFc", "assay": "flow cytometry competition: RBD-mFc on HEK293E/ACE2 cells", "units": {"IC50": "nM"}}
{"binder": "B1", "IC50": 2.57}
{"binder": "B2", "IC50": 1.75}
{"binder": "B3", "IC50": 2.67}
{"binder": "B4", "IC50": 2.9}
{"binder": "B5", "IC50": 2.19}
{"binder": "B6", "IC50": 4.13}
{"binder": "B7", "IC50": 1.69}
{"binder": "B8", "IC50": 2.93}
{"binder": "B9", "IC50": 1.59}
{"binder": "B10", "IC50": 2.21}
{"binder": "B11", "IC50": 2.21}
{"molecular_target": "SARS-CoV 스파이크 [change] (#40150-V08B1, Sino Biological) (SARS-CoV, UniProt P59594 14-667)", "assay": "ELISA, coated S1-His"}
{"binder": "B1", "binding result": "no binding (tested: 50 nM)"}
{"binder": "B2", "binding result": "no binding (tested: 50 nM)"}
{"binder": "B3", "binding result": "no binding (tested: 50 nM)"}
{"binder": "B4", "binding result": "no binding (tested: 50 nM)"}
{"binder": "B5", "binding result": "no binding (tested: 50 nM)"}
{"binder": "B6", "binding result": "no binding (tested: 50 nM)"}
{"binder": "B7", "binding result": "no binding (tested: 50 nM)"}
{"binder": "B8", "binding result": "no binding (tested: 50 nM)"}
{"binder": "B9", "binding result": "no binding (tested: 50 nM)"}
{"binder": "B10", "binding result": "no binding (tested: 50 nM)"}
{"binder": "B11", "binding result": "no binding (tested: 50 nM)"}
{"molecular_target": "T1, SARS-CoV-2 RBD-mFc", "assay": "competition ELISA: RBD-mFc on coated ACE2-His", "units": {"IC50": "nM"}}
{"binder": "B1", "IC50": 10.2}
{"binder": "B2", "IC50": 12.4}
{"binder": "B3", "IC50": 25.1}
{"binder": "B4", "IC50": 0.144}
{"binder": "B5", "IC50": 1.86}
{"binder": "B6", "IC50": 4.81}
{"binder": "B7", "IC50": 1.76}
{"binder": "B8", "IC50": 3.14}
{"binder": "B9", "IC50": 25.3}
{"binder": "B10", "IC50": 40.6}
{"binder": "B11", "IC50": 58.3}
{"molecular_target": "SARS-CoV RBD-His (#40150-V08B2, Sino Biological) (SARS-CoV, UniProt P59594 306-527)", "assay": "ELISA, coated His-tagged antigen"}
{"binder": "B1", "binding result": "no binding"}
{"binder": "B2", "binding result": "no binding"}
{"binder": "B3", "binding result": "no binding"}
{"binder": "B4", "binding result": "no binding"}
{"binder": "B5", "binding result": "no binding"}
{"binder": "B6", "binding result": "no binding"}
{"binder": "B7", "binding result": "no binding"}
{"binder": "B8", "binding result": "no binding"}
{"binder": "B9", "binding result": "no binding"}
{"binder": "B10", "binding result": "no binding"}
{"binder": "B11", "binding result": "no binding"}
{"molecular_target": "T2, SARS-CoV-2 spike protein on live SARS-CoV-2 virus (SARS-CoV-2, UniProt P0DTC2 14-1273)", "assay": "cell-based or functional assay"}
{"binder": "B4", "IC50, live SARS-CoV-2 미세중화분석, Vero 세포, 72시간": "3.22 nM and 4.51 nM"}
{"molecular_target": "T2, SARS-CoV-2 spike protein on live …", "assay": "cell-based or functional assay", "remark": "another data set of the same source", "units": {"IC50, live SARS-CoV-2 미세중화분석, Vero 세포": "nM"}}
{"binder": "B1", "IC50, live SARS-CoV-2 미세중화분석, Vero 세포": 231}
{"binder": "B2", "IC50, live SARS-CoV-2 미세중화분석, Vero 세포": 37.3}
{"binder": "B3", "IC50, live SARS-CoV-2 미세중화분석, Vero 세포": 137}
{"binder": "B4", "IC50, live SARS-CoV-2 미세중화분석, Vero 세포": 7}
{"binder": "B5", "IC50, live SARS-CoV-2 미세중화분석, Vero 세포": 11.3}
{"binder": "B6", "IC50, live SARS-CoV-2 미세중화분석, Vero 세포": 37.5}
{"binder": "B7", "IC50, live SARS-CoV-2 미세중화분석, Vero 세포": 12.5}
{"binder": "B8", "IC50, live SARS-CoV-2 미세중화분석, Vero 세포": 0.71}
{"binder": "B9", "IC50, live SARS-CoV-2 미세중화분석, Vero 세포": 8.14}
{"binder": "B10", "IC50, live SARS-CoV-2 미세중화분석, Vero 세포": 346}
{"binder": "B11", "IC50, live SARS-CoV-2 미세중화분석, Vero 세포": 80.5}
{"molecular_target": "T3, SARS-CoV-2 스파이크 S1-mFc (SARS-CoV-2, UniProt P0DTC2 16-685)", "T3 construct": "range 16-685", "assay": "competition ELISA: S1-mFc on coated ACE2-His", "units": {"IC50": "nM"}}
{"binder": "B1", "IC50": 1.86}
{"binder": "B2", "IC50": 3.85}
{"binder": "B3", "IC50": 2.11}
{"binder": "B4", "IC50": 1.88}
{"binder": "B5", "IC50": 1.4}
{"binder": "B7", "IC50": 1.43}
{"binder": "B8", "IC50": 1.45}
{"binder": "B9", "IC50": 3.1}
{"binder": "B10", "IC50": 22}
{"binder": "B11", "IC50": 13.6}
